Laboratory results from publication PMC11432006 (2024).

Columns and labels:
GFP-BC2-tag [1] = molecular target: T1, GFP-BC2-tag; assay: SPR
T1 chain: PDRKAAVSHWQQ

GFP-BC2-tag [2] = molecular target: T1, GFP-BC2-tag; assay: SPR; 5 mM DTT (reduced)

- Kd (GFP-BC2-tag [1]): 9.28 nM
- Kd (GFP-BC2-tag [2]): 55.2 nM
B1: anti-BC2-tag VHH (BC2-Nb) (VHH)
VHH: QVQLVESGGGLVQPGGSLTLSCTASGFTLDHYDIGWFRQAPGKEREGVSCINNSDDDTYYADSVKGRFTIFMNNAKDTVYLQMNSLKPEDTAIYYCAEARGCKRGRYEYDFWGQGTQVTVSS
